Consider 3 molecules from patent US5597569A (priority 1994, dated 1997).

Series [1] deals with H3396 cell membranes (BR96 antigen). The class given is binding, human. The settings on record: FIG. 10; ELISA, 10 μg/ml H3396 membranes. Background: ELISA stands for enzyme-linked immunosorbent assay.
For series [2], the system named is mice. The settings on record: for % Survival / LD50: mice; for % Survival: >14 days; for LD50: single dose.
In series [3] the test system is protein synthesis in rabbit reticulocyte lysate with wheat germ ribosomes. The note with it: cited from earlier work.
Series [4] concerns mice. The settings on record: intraperitoneal, literature; cited from earlier work.
For series [5], the system named is protein synthesis in rabbit reticulocyte lysate.
The next series deals with liver. The settings on record: for liver lesions: histochemical analysis.

Read-outs that look alike come from different tables or passages of the source.

B1: bryodin 1: type I ribosome-inactivating protein from the root of Bryonia dioica; 29 kDa band identical to the bryodin described by Stirpe (protein)
chain: DVSFRLSGATTTSYGVFIKNLREALPYERKVYNIPLLRSSISGSGRYTLLHLTNYADETISVAVDVTNVYIMGYLAGDVSYFFNEASATEAAKFVFKDAKKKVTLPYSGNYERLQTAAGKIRENIPLGLPALDSAITTLYYYTASSAASALLVLIQSTAESARYKFIEQQIGKRVDKTFLPSLATISLENNWSALSKQIQIASTNNGQFESPVVLIDGNNQRVSITNASARVVTSNIALLLNRNNIA
One may read the LD50 as the dose expected to kill half of the subjects tested. Consider B1, for which, in series [1], the “binding to H3396 membranes” value is recorded as “no detectable binding”. Further, the “% Survival” value with mice [2] (i.p., 10 mg/kg) was determined as 100%; in the series with mice [2] (i.p., 12 mg/kg), 100%; with mice [2] (i.p., 14 mg/kg), 100%; in the series with mice [2] (i.p., 16 mg/kg), 100%; in the series with mice [2] (i.v., 12 mg/kg), 100%; in the series on mice [2] (i.v., 16 mg/kg), 100%. In addition, the “% Survival” value in the series with mice [2] (i.v., 18 mg/kg) was found to be 100%; in the series with mice [2] (i.v., 20 mg/kg), 100%. Further, the “ID50, inhibition of protein synthesis” value in series [3] is 3.6 ng/mL. For the same molecule, in the series on mice [4], the LD50 was 14.5 mg/kg.

B2: bryodin 2: novel type I ribosome-inactivating protein of about 27,000 daltons isolated from the roots of Bryonia dioica (SEQ ID NO: 15) (protein)
chain: MRSIGFYSVLALYVGAHVTEDVDINFSLIGATGATYKTFIRNLRTKLTVGTPRVYDIPVLRNAAAGLARFQLVTLTNYNGESVTVALDVVNVYVVAYRAGNTAYFLADASTEANNVLFAGINHVRLPYGGNYDGLETAAGRISRENIELGFSEISSAIGNMFRHNPGTSVPRAFIVIIQTVSEAARFKYIEQRVSENVGTKFKPDPAFLSLQNAWGSLSEQIQIAQTRGGEFARPVELRTVSNTPTFVTNVNSPVVKGIALLLYFRVNVGTDNVFAMSLSTY
As usually defined, the EC50 is the concentration at which the effect is half-maximal. Higher therefore signals a need for much substance. Regarding B2, the “binding to H3396 membranes” value in series [1] was “no detectable binding”. In addition, in series [5], it took 0.017 nM to reach a half-maximal effect (EC50). The “toxicity to mice relative to bryodin 1” value in the series with mice [2] (i.p. and i.v.) was “slightly more toxic to mice than bryodin 1”. Moreover, the “% Survival” value came to 100% with mice [2] (i.p., 7 mg/kg); 50% in the series on mice [2] (i.p., 8 mg/kg); 0% in the series with mice [2] (i.p., 10 mg/kg); 0% in the series with mice [2] (i.p., 12 mg/kg); 100% in the series with mice [2] (i.v., 5 mg/kg); 100% in the series on mice [2] (i.v., 6 mg/kg). Besides, the “% Survival” value in the series with mice [2] (i.v., 7 mg/kg) stood at 100%; with mice [2] (i.v., 8 mg/kg), 75%; in the series with mice [2] (i.v., 10 mg/kg), 75%; in the series on mice [2] (i.v., 12 mg/kg), 0%; in the series with mice [2] (i.v., 14 mg/kg), 0%. Further, the LD50 with mice [2] (intraperitoneal) is reported as 8 mg/kg; in the series on mice [2] (intraperitoneal, listed as BD2), “about 8 mg/kg”; with mice [2] (intravenous), “greater than 10 mg/kg”. Besides, the “liver protein in blood chemistry screen” value in the series on liver (blood chemistry, data not shown) is reported as “increased liver protein”. The liver lesions entry in the series with liver was “showed liver lesions”; in the series with liver (listed as BD2), “presence of liver lesions”. Further, the SGOT entry in the series on liver (injected mice) is “elevated”. Further, the SGPT entry in the series on liver (injected mice) is “elevated”. The “cause of death at lethal dose” value with liver (necropsy) is “liver toxicity was the cause of death”.

B3: gelonin: a type 1 ribosome-inhibiting protein (protein)
chain: GLDTVSFSTKGATYITYVNFLNELRVKLKPEGNSHGIPLLRKKCDDPGKCFVLVALSNDNGQLAEIAIDVTSVYVVGYQVRNRSYFFKDAPDAAYEGLFKNTIKTRLHFGGSYPSLEGEKAYRETTDLGIEPLRIGIKKLDENAIDNYKPTEIASSLLVVIQMVSEAARFTFIENQIRNNFQQRIRPANNTISLENKWGKLSFQIRTSGANGMFSEAVELERANGKKYYVTAVDQVKPKIALLKFVDKDPK
Regarding B3, in series [5], the EC50 turned out to be 0.049 nM.
